Patent US20090324579A1 (UNIVERSITY OF WINDSOR, published 2009)

Molecular target: T1, BSA (UniProt P02769 25-607)
T1 construct: also called control BSA antigen; control antigen
Experiment: phage ELISA

T1 sequence (P02769 25-607 limits assumed): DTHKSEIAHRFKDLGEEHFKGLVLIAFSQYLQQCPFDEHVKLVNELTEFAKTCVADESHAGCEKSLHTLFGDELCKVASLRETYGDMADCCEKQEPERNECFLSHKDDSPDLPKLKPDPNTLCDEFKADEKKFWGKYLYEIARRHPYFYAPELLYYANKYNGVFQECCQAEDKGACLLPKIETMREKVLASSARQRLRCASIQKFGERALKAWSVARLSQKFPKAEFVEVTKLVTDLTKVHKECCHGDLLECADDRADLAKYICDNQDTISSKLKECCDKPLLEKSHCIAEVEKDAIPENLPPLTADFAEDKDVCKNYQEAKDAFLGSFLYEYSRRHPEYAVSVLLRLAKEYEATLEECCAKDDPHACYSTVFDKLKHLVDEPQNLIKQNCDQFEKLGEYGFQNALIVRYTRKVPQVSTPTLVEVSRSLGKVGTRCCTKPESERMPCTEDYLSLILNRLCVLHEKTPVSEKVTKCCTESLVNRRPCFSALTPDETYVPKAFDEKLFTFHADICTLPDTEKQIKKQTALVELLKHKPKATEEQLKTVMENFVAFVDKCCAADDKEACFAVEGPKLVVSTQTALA

B1: Casp2 VHH displayed on phage (VHH)
VHH: DVQLQASGGGLVQAGGSLRLSCAASTNIFRDKFMAWYRQAPGKQRELVASITTGGRTDYADSVKGRFTISRDNTKDTMYLQMNSLKPEDTAVYYCAGFLGRTYWGQGTQVTVSS
notes: also called Casp2 sdAb
  binding result: no binding

B2: Casp1 VHH displayed on phage (VHH)
VHH: DVQLQASGGGLVQPGGSLRLSCAASGSLSRITVMGWYRQAPGKQRELVAIITSSGGTNYADSVKGRFTISRDNAKNTVYLQMNSLKPEDTAVYYCLAARGYDRYWGRGTQVTVSS
notes: also called Casp1 sdAb
  binding result: no binding
